Data from paper PMC6366628.

Tests used:
RAD52 = target: T1, RAD52 (Homo sapiens, UniProt P43351 1-418); assay: EMSA
T1 sequence: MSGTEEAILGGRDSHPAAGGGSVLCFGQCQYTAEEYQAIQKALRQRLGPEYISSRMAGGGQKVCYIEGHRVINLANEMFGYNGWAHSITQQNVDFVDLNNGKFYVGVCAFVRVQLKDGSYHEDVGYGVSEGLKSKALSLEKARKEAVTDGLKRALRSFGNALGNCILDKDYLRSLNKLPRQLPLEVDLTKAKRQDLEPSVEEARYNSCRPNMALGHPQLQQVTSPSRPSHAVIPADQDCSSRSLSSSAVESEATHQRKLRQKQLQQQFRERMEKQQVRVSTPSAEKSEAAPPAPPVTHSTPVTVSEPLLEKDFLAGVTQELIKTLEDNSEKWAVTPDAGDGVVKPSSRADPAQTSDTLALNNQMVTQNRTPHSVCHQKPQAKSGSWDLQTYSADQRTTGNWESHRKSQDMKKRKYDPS

RPA complex = RPA complex (Homo sapiens, UniProt P27694;P15927;P35244 1-616;1-270;1-121); assay: EMSA
Sequence of RPA complex (P27694 whole entry, chain 1 of 3): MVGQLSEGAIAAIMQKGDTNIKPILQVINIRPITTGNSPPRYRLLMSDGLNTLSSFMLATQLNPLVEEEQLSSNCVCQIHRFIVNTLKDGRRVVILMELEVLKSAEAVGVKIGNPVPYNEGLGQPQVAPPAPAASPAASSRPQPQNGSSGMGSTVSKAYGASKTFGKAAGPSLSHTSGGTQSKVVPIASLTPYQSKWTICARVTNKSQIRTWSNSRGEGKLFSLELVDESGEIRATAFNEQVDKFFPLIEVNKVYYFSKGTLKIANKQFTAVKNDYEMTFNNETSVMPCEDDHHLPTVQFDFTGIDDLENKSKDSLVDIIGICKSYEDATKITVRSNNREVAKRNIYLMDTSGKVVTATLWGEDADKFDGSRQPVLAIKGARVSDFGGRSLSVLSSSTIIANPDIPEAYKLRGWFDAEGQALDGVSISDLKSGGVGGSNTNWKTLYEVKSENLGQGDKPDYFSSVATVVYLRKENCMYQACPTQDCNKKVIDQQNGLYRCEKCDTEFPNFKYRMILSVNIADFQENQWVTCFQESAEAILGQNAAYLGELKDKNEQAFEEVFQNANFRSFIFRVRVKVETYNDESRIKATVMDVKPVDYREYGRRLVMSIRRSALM
Sequence of RPA complex (P15927 whole entry, chain 2 of 3): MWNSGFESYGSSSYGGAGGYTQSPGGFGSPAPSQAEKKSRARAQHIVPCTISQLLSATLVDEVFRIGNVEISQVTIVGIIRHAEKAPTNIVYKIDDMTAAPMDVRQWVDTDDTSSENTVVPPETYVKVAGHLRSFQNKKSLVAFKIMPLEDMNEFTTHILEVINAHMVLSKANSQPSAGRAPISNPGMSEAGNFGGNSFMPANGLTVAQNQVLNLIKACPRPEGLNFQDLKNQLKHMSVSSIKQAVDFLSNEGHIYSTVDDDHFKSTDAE
Sequence of RPA complex (P35244 whole entry, chain 3 of 3): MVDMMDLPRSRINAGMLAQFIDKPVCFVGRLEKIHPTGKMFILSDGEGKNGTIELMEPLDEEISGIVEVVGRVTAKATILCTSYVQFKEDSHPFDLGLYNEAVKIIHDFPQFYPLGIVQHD

B1: ssTelo (Telo G-strand) (ssDNA)
DNA: TTAGGGTTAGGGTTAGGGTTAGGGTTAGGGTTAGGGTTAGGGTTAGGGTTAGGGTTAGGG
Question: Does B1 bind (RAD52)?
Answer: binds

Question: Does B1 bind (RPA complex)?
Answer: binds
